The series in a line: label from the status in PepcDB records.
As for “MLVGPAPTTDGSAENTLNEKRLVHGSIAFWLGPRAPQTKTHRWTVYVRGARDPLEDLSLYIQKVEFVLHESFADPVRVVKEPPFCLTEHGWGEFEVIIRLFPISDPDKPVEMYHPLRLFPSVGQELTEKPVVSEHLDVLVFSQPAPEVERALHRSDVARMPSDCWGDLMPLFGGDLHQVEEEDLRKVQQARERVRQQIQATRLQYEALTAELARARTHALHRELS”, the protein production entry is given as “not failed”. The result for “MRETIREIQKVAYWLAIKGLSEANAGNISVRLDERPEGYEVKSVNEYGFDYDGPEMYLLITATGSRMREVYEDDSKICLLHVLPGKHYEILHGNGKPTSEFPTHLMIHAKFKEMNPEKKAIVHTHPLNLLTLMNLEEFQELLPKMMKIHPEVLIFFPQGISVVEFEKPGSVELGLKTVEKSEGKDAVLWDKHGVVAFGKDVAEAYDRVEILEKAAEILLRVLSLGRNPTGVPEGWL” reads “not failed”; that for “MSTQDERQINTEYAVSLLEQLKLFYEQQLFTDIVLIVEGTEFPCHKMVLATCSSYFRAMFMSGLSESKQTHVHLRNVDAATLQIIITYAYTGNLAMNDSTVEQLYETACFLQVEDVLQRCREYLIKKINAENCVRLLSFADLFSCEELKQSAKRMVEHKFTAVYHQVAFMQLSHDLLIDIFSSDNLNVEKEETVREAAMLWLEYNTESRSQYLSSVLSQIRIDALSEVTQRAWFQGLPPNDKSVVVQGLYKSMPKFFKPRLGMTKEEMMIFIEASSENPCSLYSSVCYSPQAEKVYKLCSPPADLHKVGTVVTPDNDIYIAGGQVPLEKHKNKSQ”, “failed”; that for “MHTTSGRWGYGLFLALLTALLWGILPIKLKQVLQVVDPITVTWYRLLVSGGLLFAWLAAQRRLPSMRKLAPRGKGLVLVAVLGLMGNYVLYLIGLKLLSPGTAQLVVQIGPVLLLVASVFVFRERFSVGQGMGLLVLLAGFGLFFNQRLEELLTSLGTYTTGVLTILLATSIWVFYALSQKQLLTVWHSQQVMMVIYLSCAALLTPWVHPLEALQLTPVQGWLLLACCLNTLVAYGAFAEALAHWEASRVSATLALTPLVTFVAVALAAWVWPEYVHAEDINALGYVGAVTVVFGSALVALGPSLVTSWRARRERGQRAYSSEG”, “failed”. As to “MVKVIFFDLDDTLVDTSKLAEIARKNAIENMIRHGLPVDFETAYSELIELIKEYGSNFPYHFDYLLRRLDLPYNPKWISAGVIAYHNTKFAYLREVPGARKVLIRLKELGYELGIITDGNPVKQWEKILRLELDDFFEHVIISDFEGVKKPHPKIFKKALKAFNVKPEEALMVGDRLYSDIYGAKRVGMKTVWFRYGKHSERELEYRKYADYEIDNLESLLEVLARESSSNKKVHPPRQQI”, the protein production result is recorded as “not failed”.

For the sequence “RLKVEDALSYLDQVKLQFGSQPQVYNDFLDIMKEFKSQSIDTPGVISRVSQLFKGHPDLIMGFNTFLPPGYKIEVQTNDMVNVTTPGQVHQIPTHGI”, the protein production result is listed as “failed”. Regarding “MVQLIKKYEDLLCLLDELIKNESTFRWDEFYLERERDVPFFVLAPDEQLVEYVCTGLIESGKVLELGCGPGRNAIYLAENHFEVDVVDLSQKAIDWAMDRANERKASIRFIRENIFNLNVNKASYDLVYDSGCFHHIPPHRRMDYIHLVTTALKPGGHFGLTCFIENGPLGGAAISDLDVYRQQSLQGGLGFTEQKLIQIFDDFAVIEIRKMKEYPNDSSRFGVNGLLTALFQKKKVEKVKLEHHHHHH”, the protein production entry is “failed”. The value for “DRNSYSKTDYDATFMRMKEDHMKNGQLKPGYNLQIATNSQFVLSYNVYQNPTDTRTMIPFLNSIQETYGHLPEYIVADAGYGSESNYKAIIDDFNRTPLITYGMFIKDKTKKYKSDIFNTQNWNYDEIN” was “failed”. The value for “MNKQIDLPIADVQGSLDTRHIAIDRVGIKAIRHPVVVADKGGGSQHTVAQFNMYVNLPHNFKGTHMSRFVEILNSHEREISVESFEEILRSMVSRLESDSGHIEMAFPYFINKSAPVSGVKSLLDYEVTFIGEIKHGNQYSFTMKVIVPVTSLCPCSKKISDYGAHNQRSHVTISVRTNSFIWIEDIIRIAEEQASCELYGLLKRPDEKYVTERAYNNPKFVEDIVRDVAEVLNHDDRIDAYIVESENFESIHNHSAYALIERDKRIR” was “not failed”; that for “MRKSLKMTIGIGLILSCFGLILVGIGLSSGGIDKLQVKDDQAPKKEVQFDNIQSLDLDLSVRNIKIESSQDQHFKLTYYKKLDEEISHKVQHQKLNLKQKEKFRIHFFVLSDFFNWFHQDDTNTVTLAIPKNVQLKDVSIKNNVGDITIKNQQASKITVHQNTGNLNIYNSQIAKGKVSSDVGNIAIQNSSLSNIDVVDHTGDISAENLTVLNLVRMTNNIGNTNVSLSPQSAQATIVSTKTDVGHTDISHQLLQGYSGKNRLAVKGDTGNIQIK” was “failed”. Consider “MVEAPPPELRILSAGDSSYSGSGWSRVPHVWLRDEIRLSGEPRVRQGKREGDRRFRGRGRDRGRWHLGCPRKALFSNLLGTVYRCGNLNFSRDGNSVISPVGNRVTVFDLKNNRSDTLPLATKYNIKCVGLSPDGRLAIIVDEGGAALLVSLVCRSVLHHFHFKGSVHSVSFSPDGRKFVITKGNIAQMYHAPGKKREFNAFVLDKTYFGPYDETTCIDWTDDSKCFVVGSKDMSTWVFGAERWDNLIYYALSGHKDAIVACFFESNSLDLYSLSQDGALCVWQCDTPPEGLRLKAPRGWKADILQREKEEEEEEDEEGEGNRETTIRGKAVPAEQERVGKVKYSRLAKYFLNKEGDFNNLTAAAYHKKTHLLVTGFASGIFHLHELPEFNLIHSLSISDQRVASVAINSSGDWIAFGCSGLGQLLVWEWQSESYVLKQQGHFNSMVALAYSPDGQYIVTGGDDGKVKVWNTLSGFCFVTLTEHSSGVTGVTFTATGHVIVTSSLDGTVRAYDLHRYRNFRTFTSPRPTQFSCVAVDSSGEIVSAGAQDSFEIFVWSMQTGRLLDVLSGHEGPISGLCFNPMKSILASASWDKTVRLWDMFDSWRTKETLSLTSDVLAVTYRPDGAELAVATLNSQITFWDPENAVQVGSIEGRHDLKTGRKELDKITAKHSAKGKAFTTVCYSADGQNILAGGMSKFVCLYHVREQILVKRFELSCNFSLDAMEEFLNRRKMTEFGNLALIDQDAGEENGVAIPLPGVRKGDMSSRHFKPEIRVTSLRFSPTGRCWAATSTEGLLIFSLDAQMLFDPFELDTSVTPGRIREALRQREFTRAILMAFRLNEKKLAQEALEAVPQNEIEVVSASLPELYVVKVLEFLAASFEESRHLEFYLIWTQKLLMSHGQRLKSRAGQLLPVVQFLQKGLQRHLDDISKLCDWNRYNIQYALAVSKQRGMKRTLEPVDTEEDTDASDEDSLHLLRAAEEEEEGMLV”, for which the protein production result is on record as “failed”. The value for “MKLKNPLDMHLHLRDNQMLELIAPLSARDFCAAVIMPNLIPPLCNLEDLKAYKMRILKACKDENFTPLMTLFFKNYDEKFLYSAKDEIFGIKLYPAGITTNSNGGVSSFDIEYLKPTLEAMSDLNIPLLVHGETNDFVMDRESNFAKIYEKLAKHFPRLKIVMEHITTKTLCELLKDYENLYATITLHHLIITLDDVIGGKMNPHLFCKPIAKRYEDKEALCELAFSGYEKVMFGSDSAPHPKDTKECCGCAAGVFSAPVILPVLAELFKQNSSEENLQKFLSDNTCKIYDLKFKEDKILTLEEKEWQVPNVYEDKYNQVVPYMAGEILKFQLKH” was “not failed”. The value for “MSLIVITGASSGLGAELAKLYDAEGKATYLTGRSESKLSTVTNCLSNNVGYRARDLASHQEVEQLFEQLDSIPSTVVHSAGSGYFGLLQEQDPEQIQTLIENNLSSAINVLRELVKRYKDQPVNVVMIMSTAAQQPKAQESTYCAVKWAVKGLIESVRLELKGKPMKIIAVYPGGMATEFWETSGKSLDTSSFMSAEDAALMIHGALANIGNGYVSDITVNREGHHHHHH” was “not failed”; that for “MPLVLHHPERQAELGSGLRDGGGAALRPPGRLVKQMDFTEAYADTCSTVGLAAREGNVKVLRKLLKKGRSVDVADNRGWMPIHEAAYHNSVECLQMLINADSSENYIKMKTFEGFCALHLAASQGHWKIVQILLEAGADPNATTLEETTPLFLAVENGQIDVLRLLLQHGANVNGSHSMCGWNSLHQASFQENAEIIKLLLRKGANKECQDDFGITPLFVAAQYGKLESLSILISSGANVNCQALDKATPLFIAAQEGHTKCVELLLSSGADPDLYCNEDSWQLPIHAAAQMGHTKILDLLIPLTNRACDTGLNKVSPVYSAVFGGHEDCLEILLRNGYSPDAQACLVFGFSSPVCMAFQKDCEFFGIVNILLKYGAQINELHLAYCLKYEKFSIFRYFLRKGCSLGPWNHIYEFVNHAIKAQAKYKEWLPHLLVAGFDPLILLCNSWIDSVSIDTLIFTLEFTNWKTLAPAVERMLSARASNAWILQQHIATVPSLTHLCRLEIRSSLKSERLRSDSYISQLPLPRSLHNYLLYEDVLRMYEVPELAAIQDG” was “failed”; that for “MPVSNEIWQLLSRLAEDIRPIGVNISAGEPNRLWTEAKWRALLERFPGERFVVLSGPDDLDAKRRLEEQCPNAVASPPTRNLYEASCIVAKLRLLVTPDTSMVHVASATGTPVAGLYREAPQDISRFGPYAIPYEIVISPTGEVSGIKPESVADAVRRLMARAIGREALEHHHHHH” was “not failed”.

As for “MSLNSEAKSRIACDIDFDRDGRQAGYARAPLSRNNSGWGTVEIPITVVKNGSGPTVLLTGGVHGDEYEGQIAISDLARRLRPEEVQGRVIMLPAVNMPAIQSDTRLSPVDGRDINRCFPGDPRGTFSQMLAHFLDSVILPMADISVDMHTAGHSYDSTPSTNMHYLADPALRARTLAAAEAFGAPHNVVFGGVDEGSTFTSCVERRGIVSLGTELGGWGRVNIEGVRIGKRGILNVLKHMGVIEGTPETAQRGGAAGTRHMMVREADAYVMAPRTGLFEPTHYVGEEVRTGETAGWIHFVEDVDTAPLELLYRRDGIVWFGAGPGRVTRGDAVAVVMEDYNDTWPQEGHHHHHH”, the protein production entry is listed as “not failed”. “MFALEELPRIPDFTERAICELFELYASIESVQLPPQSSDATNSSSATAPGNIFSAERGPRYLGPRALVRFFTELGVDMRSLAALAFAWLGRWQYPCHCREEGFARGVRYALWALDRRQHNEPRRWEQVQATCSTLLETSIWPRESTALFERLRSAFPDAVLSYTQRSAEAALDFYLFAFDLNRQSPYRRSLSLTDARYLWKQFLSESCYLATPASPGTPAGVANQPWRYLEHFDAYLESRCGMAGTIISRDTWYWVLMFARETQVAGSSFFANYNQGDAWPVLLDGFVEYLRENKLLSS”: the protein production entry is recorded as “not failed”. On to “MATQAAGIFSPAITTTTSAVKKLHLFSSSHRPKSLSFTKTAIRAEKTESSSAAPAVKEAPVGFTPPQLDPNTPSPIFAGSTGGLLRKAQVEEFYVITWNSPKEQIFEMPTGGAAIMREGPNLLKLARKEQCLALGTRLRSKYKITYQFYRVFPNGEVQYLHPKDGVYPEKANPGREGVGLNMRSIGKNVSPIEVKFTGKQSYDL”, for which the protein production result is on record as “failed”. The value for “SCDSIREDLPRCELWLEFVFDYNMEYADAFNPQVKSVDVLVFDSDDKLLFTKSVKVAALVGGNRMSLTDELDFGSYKVLTVGSLSDRFRLSDNAGNKLVPGTTTLQQVIVSLKRETGGVNFEFQHLYFGEVVEVDHLPSNTNHKIYPVNLIRDTNRFNLALMGYEENKVDGTQYTFEIQAPENAVYSWENEPTGQGPITYVPYYTGPGEISDVVMSARLNTMRLLNRSGWDYKFIIRDANTEAEVWSYNLMTLLSIARPVSRYDGTELPFQEYLDRQSEWNLVFTVVEKNGGGFLQIGIVVGTWIHWLHGMEV” was “not failed”.

The values are drawn from a protein production outcome set (Wang et al. 2014).
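Also: failed if final PepcDB status was selected cloned or expressed and not failed if soluble or beyond.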
